Measured values reported in patent US20150276762A1 (NVH MEDICINAL, published 2015).
Values belong to the molecule of their own block, whether it stands above or below them.

How the values were obtained:
[1] = molecular target: plasma von Willebrand factor of type 1 von Willebrand disease patients (human) (UniProt P04275); assay: ELISA, coated at 2 µg/ml, plasma of Patient 3 (Type 1)
[2] = molecular target: plasma von Willebrand factor of type 2 von Willebrand disease patients (Table I) (human) (UniProt P04275); assay: ELISA, coated at 2 µg/ml, plasma of Patient 8 (Type 2); collagen-binding activity over vWF antigen
[3] = molecular target: plasma von Willebrand factor of type 2 von Willebrand disease patients (Table I) (human) (UniProt P04275); assay: ELISA, coated at 2 µg/ml, plasma of Patient 6 (Type 2)
[4] = molecular target: plasma von Willebrand factor of type 2 von Willebrand disease patients (Table I) (human) (UniProt P04275); assay: ELISA, coated at 2 µg/ml, plasma of Patient 6 (Type 2); collagen-binding activity over vWF antigen
[5] = molecular target: plasma von Willebrand factor of type 1 von Willebrand disease patients (human) (UniProt P04275); assay: ELISA, coated at 2 µg/ml, plasma of Patient 5 (Type 1); collagen-binding activity over vWF antigen
[6] = molecular target: plasma von Willebrand factor of type 2 von Willebrand disease patients (Table I) (human) (UniProt P04275); assay: ELISA, coated at 2 µg/ml, plasma of Patient 7 (Type 2); collagen-binding activity over vWF antigen
[7] = molecular target: plasma von Willebrand factor of type 1 von Willebrand disease patients (human) (UniProt P04275); assay: ELISA, coated at 2 µg/ml, plasma of Patient 4 (Type 1); collagen-binding activity over vWF antigen
[8] = molecular target: plasma von Willebrand factor of type 2 von Willebrand disease patients (Table I) (human) (UniProt P04275); assay: ELISA, coated at 2 µg/ml, plasma of Patient 7 (Type 2)
[9] = molecular target: plasma von Willebrand factor of type 1 von Willebrand disease patients (human) (UniProt P04275); assay: ELISA, coated at 2 µg/ml, plasma of Patient 3 (Type 1); collagen-binding activity over vWF antigen
[10] = molecular target: plasma von Willebrand factor of type 1 von Willebrand disease patients (human) (UniProt P04275); assay: ELISA, coated at 2 µg/ml, plasma of Patient 4 (Type 1)
[11] = molecular target: plasma von Willebrand factor of type 2 von Willebrand disease patients (Table I) (human) (UniProt P04275); assay: ELISA, coated at 2 µg/ml, plasma of Patient 8 (Type 2)
[12] = molecular target: plasma von Willebrand factor of type 1 von Willebrand disease patients (human) (UniProt P04275); assay: ELISA, coated at 2 µg/ml, plasma of Patient 5 (Type 1)
[13] = molecular target: T1, plasma von Willebrand factor of a patient suspected of having anti-vWF antibody (mimicking type III) (human, UniProt P04275 764-2813, limits assumed); assay: ELISA, coated at 2 µg/ml, plasma of Patient 9 (vWF activity); collagen-binding activity over vWF antigen
T1 construct: Almost no vWF antigen in this plasma; also called Patient 9; vWF activity
Description: (§1) To that end, 100 μl of a solution containing the polypeptide at 2 or 10 μg/ml in phosphate buffer or any other suitable buffer is added in each well and incubated at 22° C. for 18 to 20 hours. After three washes with 200 μl of PBS-0.05% Tween, 200 μl of 1% BSA in phosphate buffer solution (Euromedex, 0.45 μm filter) is added in each well and incubated for 2 hours at room temperature (22° C.). After three washes with 200 μl of PBS-0.05% Tween, 100 μl of various concentrations (expressed in IU/dl) of purified von Willebrand factor (Wilfactin, 100 IU/ml, LFB) and/or of patient plasma diluted in phosphate buffer or any other suitable buffer is incubated for 1.5 hours at room temperature (22° C.). After three new washes, 100 μl of a solution containing a primary anti-vWF antibody coupled with horseradish peroxidase (rabbit anti-human vWF/HRP, DAKO) diluted to 1/8000 in phosphate buffer or any other suitable buffer is incubated for 1 hour at 22° C. and then washed 4 times as described above. 125 μl of tetramethylbenzidine solution (TMB, Sigma) as peroxidase substrate is added and then incubation is carried out in the dark for 10 to a maximum of 45 minutes. The reaction is quenched by adding 125 μl of 2 N HCl (Sigma). Absorbance is quickly measured at 450 nm in a spectrophotometer (Wallac Victor 3). […]

[14] = molecular target: T2, plasma von Willebrand factor of healthy patients / control (reference) plasma (human, UniProt P04275 764-2813); assay: ELISA, coated at 2 µg/ml, plasma of Patient 2 (Normal); collagen-binding activity over vWF antigen
T2 construct: Unpurified, in diluted plasma; The read-out also depends on the amount of vWF in the plasma; also called Normal; Controls
Description: as §1

[15] = molecular target: T2, plasma von Willebrand factor of healthy …; assay: ELISA, coated at 2 µg/ml, plasma of Patient 1 (Normal); collagen-binding activity over vWF antigen
Description: as §1

Mean CB % [1]: 37% | CB/Ag ratio [2]: 0.89 | Mean CB % [3]: 17% | CB/Ag ratio [4]: 0.74 | CB/Ag ratio [5]: 0.77 | CB/Ag ratio [6]: 0.48 | CB/Ag ratio [7]: 1.41 | Mean CB % [8]: 19% | CB/Ag ratio [9]: 0.82 | Mean CB % [10]: 24% | Mean CB % [11]: 24% | Mean CB % [12]: 17%
Molecule: type III collagen (BD Biosciences), used as a reference (from UniProt P02461 154-1221)

CB/Ag ratio [13]: 0 | CB/Ag ratio [14]: 1.22 | CB/Ag ratio [15]: 1.4
B1: type III collagen (BD Biosciences), used as a reference (other, human, UniProt P02461 154-1221, looked up)
chain: QYDSYDVKSGVAVGGLAGYPGPAGPPGPPGPPGTSGHPGSPGSPGYQGPPGEPGQAGPSGPPGPPGAIGPSGPAGKDGESGRPGRPGERGLPGPPGIKGPAGIPGFPGMKGHRGFDGRNGEKGETGAPGLKGENGLPGENGAPGPMGPRGAPGERGRPGLPGAAGARGNDGARGSDGQPGPPGPPGTAGFPGSPGAKGEVGPAGSPGSNGAPGQRGEPGPQGHAGAQGPPGPPGINGSPGGKGEMGPAGIPGAPGLMGARGPPGPAGANGAPGLRGGAGEPGKNGAKGEPGPRGERGEAGIPGVPGAKGEDGKDGSPGEPGANGLPGAAGERGAPGFRGPAGPNGIPGEKGPAGERGAPGPAGPRGAAGEPGRDGVPGGPGMRGMPGSPGGPGSDGKPGPPGSQGESGRPGPPGPSGPRGQPGVMGFPGPKGNDGAPGKNGERGGPGGPGPQGPPGKNGETGPQGPPGPTGPGGDKGDTGPPGPQGLQGLPGTGGPPGENGKPGEPGPKGDAGAPGAPGGKGDAGAPGERGPPGLAGAPGLRGGAGPPGPEGGKGAAGPPGPPGAAGTPGLQGMPGERGGLGSPGPKGDKGEPGGPGADGVPGKDGPRGPTGPIGPPGPAGQPGDKGEGGAPGLPGIAGPRGSPGERGETGPPGPAGFPGAPGQNGEPGGKGERGAPGEKGEGGPPGVAGPPGGSGPAGPPGPQGVKGERGSPGGPGAAGFPGARGLPGPPGSNGNPGPPGPSGSPGKDGPPGPAGNTGAPGSPGVSGPKGDAGQPGEKGSPGAQGPPGAPGPLGIAGITGARGLAGPPGMPGPRGSPGPQGVKGESGKPGANGLSGERGPPGPQGLPGLAGTAGEPGRDGNPGSDGLPGRDGSPGGKGDRGENGSPGAPGAPGHPGPPGPVGPAGKSGDRGESGPAGPAGAPGPAGSRGAPGPQGPRGDKGETGERGAAGIKGHRGFPGNPGAPGSPGPAGQQGAIGSPGPAGPRGPVGPSGPPGKDGTSGHPGPIGPPGPRGNRGERGSEGSPGHPGQPGPPGPPGAPGPCCGGVGAAAIAGIGGEKAGGFAPYYG
notes: also called native type III collagen
